B1: AXIN1 peptide 237-252 (Axin-1), 16-mer library wild type / PP2A B56 (PPP2R5A B56 domain, residues 1-486) (parent complex)
chain 1: YLPTLNEDEEWKADQD
chain 2: not shown

Variants of: B1
Experiment: proteomic peptide phage display deep mutational scan (ProP-PD DMS): M13 P8 16-mer library selected against immobilised GST-tagged bait for four days (rounds), NGS of the eluted pools per day and pseudo-replica; bait immobilised on MaxiSorp plates (10 µg), library pre-cleared on GST, 2 h binding at 4 °C, five washes; one round per day, days 1-4; value from days 2 and 3

**Q.** How did the screen value turn out when chain 1 A13L was run?
**A.** 0.000528 average fractional NGS count over selection days 2 and 3 (reads of this peptide / all reads for the bait, averaged over …

**Q.** With chain 1 A13T as the variant, how does the screen value read?
**A.** 0.000184 average fractional NGS count over selection days 2 and 3 (reads of this peptide / all reads for the bait, averaged over …

**Q.** With chain 1 A13I as the variant, how does the screen value read?
**A.** 0.00149 average fractional NGS count over selection days 2 and 3 (reads of this peptide / all reads for the bait, averaged over …

**Q.** For chain 1 A13F, which screen value is on record?
**A.** 0.000843 average fractional NGS count over selection days 2 and 3 (reads of this peptide / all reads for the bait, averaged over …

**Q.** Which screen value does the source give for chain 1 L2M here?
**A.** 0.000692 average fractional NGS count over selection days 2 and 3 (reads of this peptide / all reads for the bait, averaged over …

**Q.** How did the screen value turn out when chain 1 L5I was run?
**A.** 0.00162 average fractional NGS count over selection days 2 and 3 (reads of this peptide / all reads for the bait, averaged over …

**Q.** With chain 1 L5V as the variant, how does the screen value read?
**A.** 0.00197 average fractional NGS count over selection days 2 and 3 (reads of this peptide / all reads for the bait, averaged over …

**Q.** How did the screen value turn out when chain 1 L5W was run?
**A.** 0.000869 average fractional NGS count over selection days 2 and 3 (reads of this peptide / all reads for the bait, averaged over …

**Q.** For chain 1 K12P, which screen value is on record?
**A.** 0.00867 average fractional NGS count over selection days 2 and 3 (reads of this peptide / all reads for the bait, averaged over …

**Q.** How did the screen value turn out when chain 1 K12E was run?
**A.** 0.000936 average fractional NGS count over selection days 2 and 3 (reads of this peptide / all reads for the bait, averaged over …

**Q.** chain 1 K12V was tested. Which screen value did it give?
**A.** 0.00977 average fractional NGS count over selection days 2 and 3 (reads of this peptide / all reads for the bait, averaged over …

**Q.** chain 1 K12G was tested. Which screen value did it give?
**A.** 0.00482 average fractional NGS count over selection days 2 and 3 (reads of this peptide / all reads for the bait, averaged over …

**Q.** For chain 1 K12D, which screen value is on record?
**A.** 0.000722 average fractional NGS count over selection days 2 and 3 (reads of this peptide / all reads for the bait, averaged over …

**Q.** Which screen value does the source give for chain 1 K12F here?
**A.** 0.00191 average fractional NGS count over selection days 2 and 3 (reads of this peptide / all reads for the bait, averaged over …

**Q.** For chain 1 K12N, which screen value is on record?
**A.** 0.00219 average fractional NGS count over selection days 2 and 3 (reads of this peptide / all reads for the bait, averaged over …

**Q.** For chain 1 K12I, which screen value is on record?
**A.** 0.00212 average fractional NGS count over selection days 2 and 3 (reads of this peptide / all reads for the bait, averaged over …

**Q.** chain 1 K12S was tested. Which screen value did it give?
**A.** 0.0233 average fractional NGS count over selection days 2 and 3 (reads of this peptide / all reads for the bait, averaged over …

**Q.** chain 1 K12W was tested. Which screen value did it give?
**A.** 0.0129 average fractional NGS count over selection days 2 and 3 (reads of this peptide / all reads for the bait, averaged over …

**Q.** Which screen value does the source give for chain 1 K12Q here?
**A.** 0.00267 average fractional NGS count over selection days 2 and 3 (reads of this peptide / all reads for the bait, averaged over …

**Q.** With chain 1 K12M as the variant, how does the screen value read?
**A.** 0.000504 average fractional NGS count over selection days 2 and 3 (reads of this peptide / all reads for the bait, averaged over …

**Q.** With chain 1 K12Y as the variant, how does the screen value read?
**A.** 0.00745 average fractional NGS count over selection days 2 and 3 (reads of this peptide / all reads for the bait, averaged over …

**Q.** For chain 1 K12H, which screen value is on record?
**A.** 0.0202 average fractional NGS count over selection days 2 and 3 (reads of this peptide / all reads for the bait, averaged over …

**Q.** How did the screen value turn out when chain 1 K12L was run?
**A.** 0.00105 average fractional NGS count over selection days 2 and 3 (reads of this peptide / all reads for the bait, averaged over …

**Q.** Which screen value does the source give for chain 1 T4V here?
**A.** 0.000271 average fractional NGS count over selection days 2 and 3 (reads of this peptide / all reads for the bait, averaged over …

**Q.** Which screen value does the source give for chain 1 T4S here?
**A.** 0.000737 average fractional NGS count over selection days 2 and 3 (reads of this peptide / all reads for the bait, averaged over …

**Q.** With chain 1 T4M as the variant, how does the screen value read?
**A.** 0.000565 average fractional NGS count over selection days 2 and 3 (reads of this peptide / all reads for the bait, averaged over …

**Q.** With chain 1 T4Q as the variant, how does the screen value read?
**A.** 0.00351 average fractional NGS count over selection days 2 and 3 (reads of this peptide / all reads for the bait, averaged over …

**Q.** With chain 1 T4Y as the variant, how does the screen value read?
**A.** 0.00014 average fractional NGS count over selection days 2 and 3 (reads of this peptide / all reads for the bait, averaged over …

**Q.** chain 1 T4P was tested. Which screen value did it give?
**A.** 0.00197 average fractional NGS count over selection days 2 and 3 (reads of this peptide / all reads for the bait, averaged over …

**Q.** How did the screen value turn out when chain 1 T4A was run?
**A.** 0.000216 average fractional NGS count over selection days 2 and 3 (reads of this peptide / all reads for the bait, averaged over …

**Q.** For chain 1 E10I, which screen value is on record?
**A.** 0.0037 average fractional NGS count over selection days 2 and 3 (reads of this peptide / all reads for the bait, averaged over …

**Q.** chain 1 E10Y was tested. Which screen value did it give?
**A.** 0.00105 average fractional NGS count over selection days 2 and 3 (reads of this peptide / all reads for the bait, averaged over …

**Q.** For chain 1 E10R, which screen value is on record?
**A.** 0.000173 average fractional NGS count over selection days 2 and 3 (reads of this peptide / all reads for the bait, averaged over …

**Q.** How did the screen value turn out when chain 1 E10M was run?
**A.** 0.00109 average fractional NGS count over selection days 2 and 3 (reads of this peptide / all reads for the bait, averaged over …

**Q.** Which screen value does the source give for chain 1 E10F here?
**A.** 0.000572 average fractional NGS count over selection days 2 and 3 (reads of this peptide / all reads for the bait, averaged over …

**Q.** For chain 1 E10P, which screen value is on record?
**A.** 0.00206 average fractional NGS count over selection days 2 and 3 (reads of this peptide / all reads for the bait, averaged over …

**Q.** Which screen value does the source give for chain 1 E10V here?
**A.** 0.0046 average fractional NGS count over selection days 2 and 3 (reads of this peptide / all reads for the bait, averaged over …

**Q.** For chain 1 E10L, which screen value is on record?
**A.** 0.00181 average fractional NGS count over selection days 2 and 3 (reads of this peptide / all reads for the bait, averaged over …

**Q.** How did the screen value turn out when chain 1 E9Q was run?
**A.** 0.0159 average fractional NGS count over selection days 2 and 3 (reads of this peptide / all reads for the bait, averaged over …

**Q.** How did the screen value turn out when chain 1 E9G was run?
**A.** 0.000581 average fractional NGS count over selection days 2 and 3 (reads of this peptide / all reads for the bait, averaged over …

**Q.** How did the screen value turn out when chain 1 E9A was run?
**A.** 0.00203 average fractional NGS count over selection days 2 and 3 (reads of this peptide / all reads for the bait, averaged over …

**Q.** How did the screen value turn out when chain 1 E9M was run?
**A.** 0.00292 average fractional NGS count over selection days 2 and 3 (reads of this peptide / all reads for the bait, averaged over …

**Q.** With chain 1 E9D as the variant, how does the screen value read?
**A.** 0.000572 average fractional NGS count over selection days 2 and 3 (reads of this peptide / all reads for the bait, averaged over …

**Q.** How did the screen value turn out when chain 1 E9P was run?
**A.** 0.00261 average fractional NGS count over selection days 2 and 3 (reads of this peptide / all reads for the bait, averaged over …

**Q.** With chain 1 E9N as the variant, how does the screen value read?
**A.** 0.000581 average fractional NGS count over selection days 2 and 3 (reads of this peptide / all reads for the bait, averaged over …

**Q.** How did the screen value turn out when chain 1 E9H was run?
**A.** 0.000956 average fractional NGS count over selection days 2 and 3 (reads of this peptide / all reads for the bait, averaged over …

**Q.** For chain 1 E9S, which screen value is on record?
**A.** 0.00105 average fractional NGS count over selection days 2 and 3 (reads of this peptide / all reads for the bait, averaged over …

**Q.** Which screen value does the source give for chain 1 E9I here?
**A.** 0.00451 average fractional NGS count over selection days 2 and 3 (reads of this peptide / all reads for the bait, averaged over …

**Q.** chain 1 E9W was tested. Which screen value did it give?
**A.** 0.00436 average fractional NGS count over selection days 2 and 3 (reads of this peptide / all reads for the bait, averaged over …

**Q.** chain 1 N6M was tested. Which screen value did it give?
**A.** 0.000248 average fractional NGS count over selection days 2 and 3 (reads of this peptide / all reads for the bait, averaged over …

**Q.** chain 1 N6E was tested. Which screen value did it give?
**A.** 0.00107 average fractional NGS count over selection days 2 and 3 (reads of this peptide / all reads for the bait, averaged over …

**Q.** chain 1 N6L was tested. Which screen value did it give?
**A.** 0.00123 average fractional NGS count over selection days 2 and 3 (reads of this peptide / all reads for the bait, averaged over …

**Q.** Which screen value does the source give for chain 1 N6K here?
**A.** 0.0012 average fractional NGS count over selection days 2 and 3 (reads of this peptide / all reads for the bait, averaged over …

**Q.** With chain 1 N6S as the variant, how does the screen value read?
**A.** 0.0193 average fractional NGS count over selection days 2 and 3 (reads of this peptide / all reads for the bait, averaged over …

**Q.** Which screen value does the source give for chain 1 N6V here?
**A.** 0.00339 average fractional NGS count over selection days 2 and 3 (reads of this peptide / all reads for the bait, averaged over …

**Q.** Which screen value does the source give for chain 1 N6H here?
**A.** 0.0272 average fractional NGS count over selection days 2 and 3 (reads of this peptide / all reads for the bait, averaged over …

**Q.** With chain 1 N6A as the variant, how does the screen value read?
**A.** 0.00273 average fractional NGS count over selection days 2 and 3 (reads of this peptide / all reads for the bait, averaged over …

**Q.** chain 1 N6Q was tested. Which screen value did it give?
**A.** 0.00501 average fractional NGS count over selection days 2 and 3 (reads of this peptide / all reads for the bait, averaged over …

**Q.** For chain 1 N6Y, which screen value is on record?
**A.** 0.000368 average fractional NGS count over selection days 2 and 3 (reads of this peptide / all reads for the bait, averaged over …

**Q.** For chain 1 N6T, which screen value is on record?
**A.** 0.00301 average fractional NGS count over selection days 2 and 3 (reads of this peptide / all reads for the bait, averaged over …

**Q.** Which screen value does the source give for chain 1 N6I here?
**A.** 0.00196 average fractional NGS count over selection days 2 and 3 (reads of this peptide / all reads for the bait, averaged over …

**Q.** With chain 1 N6R as the variant, how does the screen value read?
**A.** 0.000965 average fractional NGS count over selection days 2 and 3 (reads of this peptide / all reads for the bait, averaged over …

**Q.** With chain 1 N6P as the variant, how does the screen value read?
**A.** 0.0105 average fractional NGS count over selection days 2 and 3 (reads of this peptide / all reads for the bait, averaged over …

**Q.** chain 1 N6D was tested. Which screen value did it give?
**A.** 0.00102 average fractional NGS count over selection days 2 and 3 (reads of this peptide / all reads for the bait, averaged over …

**Q.** With chain 1 N6W as the variant, how does the screen value read?
**A.** 0.000792 average fractional NGS count over selection days 2 and 3 (reads of this peptide / all reads for the bait, averaged over …

**Q.** How did the screen value turn out when chain 1 N6F was run?
**A.** 0.000398 average fractional NGS count over selection days 2 and 3 (reads of this peptide / all reads for the bait, averaged over …

**Q.** For chain 1 W11H, which screen value is on record?
**A.** 0.000184 average fractional NGS count over selection days 2 and 3 (reads of this peptide / all reads for the bait, averaged over …

**Q.** With chain 1 W11Y as the variant, how does the screen value read?
**A.** 0.000932 average fractional NGS count over selection days 2 and 3 (reads of this peptide / all reads for the bait, averaged over …

**Q.** chain 1 W11L was tested. Which screen value did it give?
**A.** 0.000123 average fractional NGS count over selection days 2 and 3 (reads of this peptide / all reads for the bait, averaged over …

**Q.** With chain 1 W11I as the variant, how does the screen value read?
**A.** 0.000232 average fractional NGS count over selection days 2 and 3 (reads of this peptide / all reads for the bait, averaged over …

**Q.** How did the screen value turn out when chain 1 W11Q was run?
**A.** 0.000237 average fractional NGS count over selection days 2 and 3 (reads of this peptide / all reads for the bait, averaged over …

**Q.** How did the screen value turn out when chain 1 W11V was run?
**A.** 0.000957 average fractional NGS count over selection days 2 and 3 (reads of this peptide / all reads for the bait, averaged over …

**Q.** For chain 1 W11T, which screen value is on record?
**A.** 0.000334 average fractional NGS count over selection days 2 and 3 (reads of this peptide / all reads for the bait, averaged over …

**Q.** chain 1 W11S was tested. Which screen value did it give?
**A.** 0.000194 average fractional NGS count over selection days 2 and 3 (reads of this peptide / all reads for the bait, averaged over …

**Q.** How did the screen value turn out when chain 1 W11R was run?
**A.** 0.000154 average fractional NGS count over selection days 2 and 3 (reads of this peptide / all reads for the bait, averaged over …
